Publication PMC11410209

Target: 2526 IgG3
Assay: ELISA
Settings: read at the highest mAb concentration, 10 µg/ml; parent: est. 4.0; read off a plot

For “BG505.SOSIP with a glycan at position 332 (Fig 5C) N332T”, the response was 3.1 Abs (450nm).
